Laboratory results published in paper PMC8432889.

Target: β-PIX (endogenous, Hap1 cells) (human (endogenous in Hap1)) (UniProt Q14155)
Chain of UniProt Q14155 (Q14155 whole entry): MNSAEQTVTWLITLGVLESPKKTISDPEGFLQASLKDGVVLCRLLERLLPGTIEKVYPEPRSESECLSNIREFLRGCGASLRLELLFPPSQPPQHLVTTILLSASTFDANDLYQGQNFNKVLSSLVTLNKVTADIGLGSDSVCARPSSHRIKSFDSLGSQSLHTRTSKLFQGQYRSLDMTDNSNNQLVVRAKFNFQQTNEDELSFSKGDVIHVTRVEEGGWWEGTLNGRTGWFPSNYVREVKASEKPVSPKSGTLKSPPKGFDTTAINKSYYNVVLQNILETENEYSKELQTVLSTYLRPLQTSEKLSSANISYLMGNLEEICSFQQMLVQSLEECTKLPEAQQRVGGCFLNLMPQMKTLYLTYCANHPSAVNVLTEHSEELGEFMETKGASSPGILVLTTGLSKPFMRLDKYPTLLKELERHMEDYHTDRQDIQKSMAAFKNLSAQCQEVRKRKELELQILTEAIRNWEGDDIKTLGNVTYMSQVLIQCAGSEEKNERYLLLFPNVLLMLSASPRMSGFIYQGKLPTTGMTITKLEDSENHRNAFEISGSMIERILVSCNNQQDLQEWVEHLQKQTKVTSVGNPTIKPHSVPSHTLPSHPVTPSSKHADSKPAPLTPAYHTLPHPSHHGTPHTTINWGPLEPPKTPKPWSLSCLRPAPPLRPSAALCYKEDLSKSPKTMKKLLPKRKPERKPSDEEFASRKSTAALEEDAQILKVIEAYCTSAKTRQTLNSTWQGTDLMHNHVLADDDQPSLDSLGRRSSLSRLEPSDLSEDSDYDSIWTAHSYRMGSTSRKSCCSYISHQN

Q: “Emerald-tagged PAK1, full length (from UniProt Q13153 1-545) (enzyme)” was tested. Which Salmonella invasion into WT Hap1 cells treated with the inhibitor peptide PAK18 (PAK residues 187–203; 5 μM), percent impeded; negative control peptide had no effect did it give?
A: 55%
